We go through 1 substance from paper PMC10214663.

This experiment deals with FGF4-Fc (human) (UniProt P08620). The experiment in a line: BLI; Octet RED K2; FGF4-Fc (25 µg/mL) on Protein-A sensors, galectins at 0.2 µM to 6 µM; heterogeneous ligand (2:1) model; steady-state analysis for galectin-1. A general note: BLI is a label-free optical method that tracks binding on a fibre tip over time.
Sequence of FGF4-Fc (human) (P08620 31-206): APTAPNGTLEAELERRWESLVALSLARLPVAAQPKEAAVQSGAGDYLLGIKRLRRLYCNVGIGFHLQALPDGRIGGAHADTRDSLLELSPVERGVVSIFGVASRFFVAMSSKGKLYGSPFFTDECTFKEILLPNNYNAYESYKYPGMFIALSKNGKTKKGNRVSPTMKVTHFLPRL

In the case of galectin-8 (natural protein), the KD1 came out at 724 nM, the KD2 was found to be 140 nM, the KOff1 was found to be 0.0755 s⁻¹ and the KOff2 was determined as 0.000115 s⁻¹. The substance further showed a Kon1 of 104000 M⁻¹ s⁻¹ and a Kon2 of 823 M⁻¹ s⁻¹.
